Reference: US20220306744A1 (CRESCENDO BIOLOGICS, published 2022)

Legend:
[1] = target: T1, human PD-1 expressed on cells (CHO TREX human PD1 cell line, full-length human PD-1 sequence) (human, UniProt Q15116 21-288); experiment: cell-based or functional assay
[2] = target: T2, recombinant human PD-1 Fc chimera (human, UniProt Q15116 25-167); experiment: SPR Biacore T200, single cycle kinetics, human PD-1-hu Fc amine coupled to CM5, 1:1 model
T2 construct: Bought protein (R&D 1086-PD in the HTRF assay); also called human PD-1-hu Fc; huPD-1Fc; not shown: human Fc
T2 sequence (Q15116 25-167 limits assumed, stated change not applied): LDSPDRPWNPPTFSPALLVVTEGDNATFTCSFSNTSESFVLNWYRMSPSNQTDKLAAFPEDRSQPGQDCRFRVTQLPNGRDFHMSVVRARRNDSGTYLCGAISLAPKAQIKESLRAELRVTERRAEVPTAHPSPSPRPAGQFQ
Description: Binding kinetics of certain humabodies binding to human PD-1-hu Fc were measured by surface plasmon resonance (SPR) technology using Biacore T200 instrument (GE Healthcare). Recombinant human PD-1-hu Fc was immobilized by standard amine coupling to CM5 sensors chip (GE Healthcare) using 0.1 mg/ml solution of antigen in 10 mM sodium acetate at pH 5.5. For the reference flow cell, a blank immobilisation was carried out. Single cycle kinetics assays were used to study the interaction, a five point, three-fold dilution series of each Humabody® VH was made with a top concentration of 30 nM. The binding kinetics were followed by flowing the Humabody® VH over the chip surface in HBS EP+ buffer at a flow rate of 30 μl/min. The contact time for each of the association steps was 180 seconds and the dissociation step was varied between 1200-3600 seconds. The data was fitted to a 1:1 binding model after double reference subtraction using the Biacore T200 Evaluation software.

[3] = target: T1, human PD-1 expressed on cells (CHO TREX …); experiment: cell-based or functional assay; remark: listed apart in the source
[4] = target: T1, human PD-1 expressed on cells (CHO TREX …); experiment: FMAT: inhibition of human Fc tagged human PD-L1 (400 pM) binding to CHO human PD-1 cells
Description: Purified VH were serially diluted in FMAT assay buffer and tested for binding to CHO human PD-1 cells as described above and for inhibition of human PD-L1/PD-L2 binding to CHO human PD-1 cells. All reagents and serially diluted VH were prepared in FMAT assay buffer. VH, buffer (total binding controls) or excess competitor (non-specific binding control) were incubated with 400 pM human Fc tagged human PD-L1 or 100 pM PDL-2, 4 nM anti human Fc-Alexa Fluor-488 and 2000 per well CHO human PD-1 DRAQ5 stained cells in a 384 well black clear-bottomed assay plates. Plates were incubated for 2 hours at room temperature then fluorescence measured in the FL2 (502 nm-537 nm) and FL5 (677-800 nm) channels on the Mirrorball plate reader (TTP) following excitation at 488 nm and 640 nm. Data was expressed as a % of the total binding control (i.e. % control) after subtraction of the background signal determined from the non-specific binding control wells. The results are shown in FIG. 5 and in Tables 8 and 9 below.

T1 sequence (Q15116 21-288): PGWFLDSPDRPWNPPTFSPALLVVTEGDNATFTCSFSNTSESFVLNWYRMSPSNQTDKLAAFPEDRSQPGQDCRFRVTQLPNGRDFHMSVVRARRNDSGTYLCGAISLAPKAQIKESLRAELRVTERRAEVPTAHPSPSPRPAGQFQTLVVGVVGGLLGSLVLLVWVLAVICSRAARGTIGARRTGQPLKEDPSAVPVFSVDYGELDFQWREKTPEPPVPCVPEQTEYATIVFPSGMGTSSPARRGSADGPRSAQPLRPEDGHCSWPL

B1: 1.77b-2GS-1.21a (other)
chain: EVQLVESGGGLVKPGGSLRLSCAASGFTFSDSSMTWMRQAPGKGLEWVSYISSGGGVKFYTDSVKGRFTISRDNAKNSLYLQMNSLRAEDTAVYYCAREAPLRLGESPHDAFDISGQGTMVTVSSGGGGSGGGGSEVQLVESGGGLVQPGRSLRLSCAASGFTFDDYAMHWVRQAPGKDLEWVSGISWNGGSMGYAASVKGRFTISRDNAKNSLYLQMNSLRAEDTALYYCVREKGPGLTGSTADYYGLDVWGQGTMVTVSS
EC50 (M), NFAT-Luciferase reporter gene assay [1]: 2.1e-09 M

B2: 1.1b-2GS-1.1a (other)
chain: QVQLVESGGGLVKPGGSLRLSCAASGFTFSDYTMTWMRQAPGKGLEWVSYISTGGTIKYYTDSVKGRFTISRDNAKNSLYLQMNSLRADDTAVYYCAREAPLRLGESPHDAFDIWGQGTMVTVSSGGGGSGGGGSEVQLLESGGGSVQPGRSLRLSCAASGFTFDDHAMHWVRQAPGKGLEWVSGISWNSGSMGYADSVKDRFTISRDNAKSSLYLQMNSLRAEDTALYYCVREKGPGLTGSTADYYGLDVWGQGTMVTVSS
notes: Biparatopic VH-linker-VH; His tag implied by the assays; not in the chain
Kd [2]: 0.0346 nM | koff [2]: 1.08e-05 s⁻¹ | kon [2]: 313000 M⁻¹ s⁻¹ | EC50 (M), NFAT-Luciferase reporter gene assay [1]: 7.2e-09 M

B3: 1.77b-4GS-1.77b (other)
chain: EVQLVESGGGLVKPGGSLRLSCAASGFTFSDSSMTWMRQAPGKGLEWVSYISSGGGVKFYTDSVKGRFTISRDNAKNSLYLQMNSLRAEDTAVYYCAREAPLRLGESPHDAFDISGQGTMVTVSSGGGGSGGGGSGGGGSGGGGSEVQLVESGGGLVKPGGSLRLSCAASGFTFSDSSMTWMRQAPGKGLEWVSYISSGGGVKFYTDSVKGRFTISRDNAKNSLYLQMNSLRAEDTAVYYCAREAPLRLGESPHDAFDISGQGTMVTVSS
EC50 uM, PathHunter Checkpoint assay (PD-1 signalling) [3]: 0.0002 µM | Max. % increase in response over baseline, PathHunter Checkpoint assay [3]: 48.5%

B4: 1.77b-1GS-1.21a (other)
chain: EVQLVESGGGLVKPGGSLRLSCAASGFTFSDSSMTWMRQAPGKGLEWVSYISSGGGVKFYTDSVKGRFTISRDNAKNSLYLQMNSLRAEDTAVYYCAREAPLRLGESPHDAFDISGQGTMVTVSSGGGGSEVQLVESGGGLVQPGRSLRLSCAASGFTFDDYAMHWVRQAPGKDLEWVSGISWNGGSMGYAASVKGRFTISRDNAKNSLYLQMNSLRAEDTALYYCVREKGPGLTGSTADYYGLDVWGQGTMVTVSS
EC50 (M), NFAT-Luciferase reporter gene assay [1]: 2.3e-09 M | EC50 uM, PathHunter Checkpoint assay (PD-1 signalling) [3]: 0.00059 µM | Max. % increase in response over baseline, PathHunter Checkpoint assay [3]: 1330%

B5: 1.1b (VHH)
VHH: QVQLVESGGGLVKPGGSLRLSCAASGFTFSDYTMTWMRQAPGKGLEWVSYISTGGTIKYYTDSVKGRFTISRDNAKNSLYLQMNSLRADDTAVYYCAREAPLRLGESPHDAFDIWGQGTMVTVSS
notes: also called Humabody 1.1b
IC50 [4]: 23 nM

B6: 1.1a-4GS-1.57b (other)
chain: EVQLLESGGGSVQPGRSLRLSCAASGFTFDDHAMHWVRQAPGKGLEWVSGISWNSGSMGYADSVKDRFTISRDNAKSSLYLQMNSLRAEDTALYYCVREKGPGLTGSTADYYGLDVWGQGTMVTVSSGGGGSGGGGSGGGGSGGGGSQVQLVESGGGLVKPGGSLRLSCAASGFTFSDNSMTWMRQAPGKGLEWVSYISSGGGVIFYADSVKGRFTISRDNAKNSLYLQMNSLRADDTAVYYCAREAPLRLGESPHDAFDISGQGTMVTVSS
EC50 (M), NFAT-Luciferase reporter gene assay [1]: 3.9e-09 M

B7: 1.92b-4GS-1.99a (other)
chain: EVQLVESGGGLVKPGGSLRLSCAASGFTFSDESMTWMRQAPGKGLEWVSYISSGGGVKFYADSVKGRFTISRDNAKNSLYLQMNSLRAEDTAVYYCAREAPLRLGESPHDAFDISGQGTMVTVSSGGGGSGGGGSGGGGSGGGGSEVQLVESGGGVVRPGGSLRLSCAASGFTFDDYAMSWVRQAPGKGLEWVSGITWNGGSTGYADSVKGRFTISRDNAKNSLYLQMNSLRAEDTALYYCVRDKYSYAWSYDGFDIWGQGTMVTVSS
EC50 (M), NFAT-Luciferase reporter gene assay [1]: 1e-09 M

B8: 1.92b-4GS-1.103a (other)
chain: EVQLVESGGGLVKPGGSLRLSCAASGFTFSDESMTWMRQAPGKGLEWVSYISSGGGVKFYADSVKGRFTISRDNAKNSLYLQMNSLRAEDTAVYYCAREAPLRLGESPHDAFDISGQGTMVTVSSGGGGSGGGGSGGGGSGGGGSEVQLVESGGGVVRPGGSLRLSCAASGFTFDDYAMSWVRQAPGKGLEWVSGITWNGGSTGYADSVKDRFTISRDNAKNSLYLQMNSLRAEDTALYYCVRDKYSYAWSYDDFDIWGQGTMVTVSS
EC50 (M), NFAT-Luciferase reporter gene assay [1]: 1.2e-09 M

B9: 1.1b-4GS-1.1a (other)
chain: QVQLVESGGGLVKPGGSLRLSCAASGFTFSDYTMTWMRQAPGKGLEWVSYISTGGTIKYYTDSVKGRFTISRDNAKNSLYLQMNSLRADDTAVYYCAREAPLRLGESPHDAFDIWGQGTMVTVSSGGGGSGGGGSGGGGSGGGGSEVQLLESGGGSVQPGRSLRLSCAASGFTFDDHAMHWVRQAPGKGLEWVSGISWNSGSMGYADSVKDRFTISRDNAKSSLYLQMNSLRAEDTALYYCVREKGPGLTGSTADYYGLDVWGQGTMVTVSS
notes: Biparatopic VH-linker-VH
Kd [2]: 0.035 nM | koff [2]: 1.1e-05 s⁻¹ | kon [2]: 316000 M⁻¹ s⁻¹ | IC50 [4]: 5.6 nM | EC50 (M), NFAT-Luciferase reporter gene assay [1]: 8.5e-09 M

B10: 1.77b-4GS-1.21a (other)
chain: EVQLVESGGGLVKPGGSLRLSCAASGFTFSDSSMTWMRQAPGKGLEWVSYISSGGGVKFYTDSVKGRFTISRDNAKNSLYLQMNSLRAEDTAVYYCAREAPLRLGESPHDAFDISGQGTMVTVSSGGGGSGGGGSGGGGSGGGGSEVQLVESGGGLVQPGRSLRLSCAASGFTFDDYAMHWVRQAPGKDLEWVSGISWNGGSMGYAASVKGRFTISRDNAKNSLYLQMNSLRAEDTALYYCVREKGPGLTGSTADYYGLDVWGQGTMVTVSS
EC50 (M), NFAT-Luciferase reporter gene assay [1]: 3.2e-09 M | EC50 uM, PathHunter Checkpoint assay (PD-1 signalling) [3]: 0.0005 µM | Max. % increase in response over baseline, PathHunter Checkpoint assay [3]: 253%

B11: 1.64b-4GS-1.1a (other)
chain: EVQLVESGGGLVKPGGSLRLSCAASGFTFSDSSMTWMRQAPGKGLEWVSYISSGGGVKFYADSVKGRFTISRDNAKNSLYLQMNSLRADDTAVYYCAREAPLRLGESPHDAFDISGQGTMVTVSSGGGGSGGGGSGGGGSGGGGSEVQLLESGGGSVQPGRSLRLSCAASGFTFDDHAMHWVRQAPGKGLEWVSGISWNSGSMGYADSVKDRFTISRDNAKSSLYLQMNSLRAEDTALYYCVREKGPGLTGSTADYYGLDVWGQGTMVTVSS
EC50 (M), NFAT-Luciferase reporter gene assay [1]: 3e-09 M
